The results in this text go back to paper PMC5122715, “A Novel, Molybdenum-Containing Methionine Sulfoxide Reductase Supports Survival of Haemophilus influenzae in an In vivo Model of Infection” (Frontiers in Microbiology, 2016).

Experiment in all cases: purified protein
The subject of one series is C[N+](C)(C)[O-]. Conditions: 0.2 mM benzyl viologen, 0.3 mM dithionite, 20 mM sodium phosphate pH 6.8, 37°C.
The subject of the next series is C[S+](C)[O-]. Conditions: 0.2 mM benzyl viologen, 0.3 mM dithionite, 20 mM sodium phosphate pH 6.8, 37°C.
The test system of the next series is C[S+]([O-])CCC(N)C(=O)O. Conditions: 0.2 mM benzyl viologen, 0.3 mM dithionite, 20 mM sodium phosphate pH 6.8, 37°C, concentration of the whole racemic mixture.
Series [1] deals with O=C(O)CCCC[C@H]1[C@H]2NC(=O)N[C@H]2C[S@+]1[O-]. Conditions: 0.2 mM benzyl viologen, 0.3 mM dithionite, 20 mM sodium phosphate pH 6.8, 37°C.

What is called Km is the substrate concentration at which the rate is half of its maximum. Broadly, the kcat is the number of substrate molecules converted per active site and unit of time at saturation. One may read the kcat/Km as the turnover number divided by the Michaelis constant. For the substance “HI rTorZ (TorZ/MtsZ) (Haemophilus influenzae Rd KW20)”, the Michaelis constant (Km) in the series with C[N+](C)(C)[O-] worked out at 6700 ± 2000 µM; in the series on C[S+](C)[O-], 140 ± 50 µM; in the series on C[S+]([O-])CCC(N)C(=O)O, 410 ± 80 µM; in series [1], 1520 ± 280 µM. The kcat in the series with C[N+](C)(C)[O-] amounted to 435 ± 52.1 s⁻¹; in the series with C[S+](C)[O-], 85.4 ± 9.1 s⁻¹; in the series with C[S+]([O-])CCC(N)C(=O)O, 91.7 ± 4.4 s⁻¹; in series [1], 183 ± 10.9 s⁻¹. Further, the kcat/Km in the series on C[N+](C)(C)[O-] was determined as 64900 M⁻¹ s⁻¹; in the series with C[S+](C)[O-], 650000 M⁻¹ s⁻¹; in the series with C[S+]([O-])CCC(N)C(=O)O it was 224000 M⁻¹ s⁻¹; in series [1], 120000 M⁻¹ s⁻¹.
